Earlier results as cited in PMC5751705.

Legend:
[1] = molecular target: substance P (Homo sapiens) (UniProt P20366)
YopB (Yersinia pestis) = YopB (Yersinia pestis) (UniProt Q06114)
Sequence of YopB (Yersinia pestis) (Q06114 whole entry): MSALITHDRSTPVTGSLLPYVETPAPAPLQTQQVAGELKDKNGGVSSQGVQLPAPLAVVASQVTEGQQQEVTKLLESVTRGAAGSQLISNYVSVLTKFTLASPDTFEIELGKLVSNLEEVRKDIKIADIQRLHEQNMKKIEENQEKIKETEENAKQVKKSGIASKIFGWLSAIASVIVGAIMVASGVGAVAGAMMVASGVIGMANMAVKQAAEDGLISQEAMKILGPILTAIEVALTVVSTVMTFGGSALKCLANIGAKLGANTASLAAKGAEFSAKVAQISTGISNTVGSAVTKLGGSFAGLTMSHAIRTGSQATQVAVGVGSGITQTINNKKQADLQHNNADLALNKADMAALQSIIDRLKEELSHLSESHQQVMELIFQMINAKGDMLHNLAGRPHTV

Sequence of substance P (Homo sapiens) (P20366 whole entry, looked up): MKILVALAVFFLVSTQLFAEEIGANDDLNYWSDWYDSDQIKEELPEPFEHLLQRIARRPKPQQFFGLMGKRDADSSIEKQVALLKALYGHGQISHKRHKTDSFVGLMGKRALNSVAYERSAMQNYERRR
Sequence of LcrV (P0C7U7 whole entry): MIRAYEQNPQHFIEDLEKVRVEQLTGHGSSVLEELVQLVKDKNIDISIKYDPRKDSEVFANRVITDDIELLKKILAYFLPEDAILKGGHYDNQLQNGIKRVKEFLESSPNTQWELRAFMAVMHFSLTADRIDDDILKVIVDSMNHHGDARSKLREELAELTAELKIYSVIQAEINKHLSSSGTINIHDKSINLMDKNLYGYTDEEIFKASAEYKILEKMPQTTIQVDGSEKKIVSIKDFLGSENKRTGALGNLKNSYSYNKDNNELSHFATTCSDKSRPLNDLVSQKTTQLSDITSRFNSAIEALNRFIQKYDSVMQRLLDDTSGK
Sequence of NK1R (P25103 whole entry): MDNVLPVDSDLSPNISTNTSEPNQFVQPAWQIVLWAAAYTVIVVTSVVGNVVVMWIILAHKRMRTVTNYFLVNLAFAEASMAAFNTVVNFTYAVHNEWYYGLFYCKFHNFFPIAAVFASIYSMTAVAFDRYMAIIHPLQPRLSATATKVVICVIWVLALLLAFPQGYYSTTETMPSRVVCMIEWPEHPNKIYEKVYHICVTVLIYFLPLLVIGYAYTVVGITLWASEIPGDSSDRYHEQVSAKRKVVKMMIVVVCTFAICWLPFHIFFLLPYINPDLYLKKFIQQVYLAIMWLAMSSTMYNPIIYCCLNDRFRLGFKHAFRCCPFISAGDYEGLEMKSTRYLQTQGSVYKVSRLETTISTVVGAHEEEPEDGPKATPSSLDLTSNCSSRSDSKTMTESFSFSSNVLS

## NK1R (from UniProt P25103)
[1]
  Kd: 83 nM

## LcrV (from UniProt P0C7U7)
YopB (Yersinia pestis)
  Kd: 20.5 nM
